Reference: patent publication US20200055959A1 (UCB, published 2020)

What was measured:
[1] = biological target: T1, human serum albumin (human, UniProt P02768 25-609); experiment: SPR, BIAcore T100; construct captured; HSA 50-6.25 nM as analyte; 1:1 model; repeat at end of run
T1 construct: Analyte in SPR, titrated 50-6.25 nM; also called HSA
Protocol: (§1) Single linker Fab-dsFv samples were captured to the sensor chip surface using either a human F(ab′)₂-specific goat Fab (Jackson ImmunoResearch, 109-006-097) or an in-house generated anti human CH1 monoclonal antibody. Covalent immobilisation of the capture antibody was achieved by standard amine coupling chemistry.
(§2) For kinetic assays, either a titration of human serum albumin 50-6.25 nM, or a single concentration of OX40 of 25 nM was performed. A blank flow-cell was used for reference subtraction and buffer-blank injections were included to subtract instrument noise and drift.
(§3) Kinetic parameters were determined by simultaneous global-fitting of the resulting sensorgrams to a standard 1:1 binding model using BIAcore T100 Evaluation software.

[2] = biological target: T1, human serum albumin; experiment: SPR, BIAcore T100; construct captured by anti-human F(ab')2 Fab or anti-CH1 mAb; HSA 50-6.25 nM as analyte; 1:1 model
Protocol: as §1, §2, §3

[3] = biological target: T1, human serum albumin; experiment: SPR, BIAcore T100; construct captured; HSA 50-6.25 nM as analyte; 1:1 model; plasmid ratio 1:1:1
Protocol: as §1, §2, §3

[4] = biological target: T1, human serum albumin; experiment: SPR, BIAcore T100; construct captured; HSA 50-6.25 nM as analyte; 1:1 model; plasmid ratio 2:1:2
Protocol: as §1, §2, §3

[5] = biological target: T1, human serum albumin; experiment: SPR, BIAcore T100; construct captured; HSA 50-6.25 nM as analyte; 1:1 model; plasmid ratio 1:1:2
Protocol: as §1, §2, §3

[6] = biological target: T1, human serum albumin; experiment: SPR, BIAcore T100; construct captured; HSA 50-6.25 nM as analyte; 1:1 model; plasmid ratio printed 1:1:1 (second such row)
Protocol: as §1, §2, §3

[7] = biological target: T1, human serum albumin; experiment: SPR, BIAcore T100; construct captured; HSA 50-6.25 nM as analyte; 1:1 model
Protocol: as §1, §2, §3

Binder	Kd [3] [nM]	koff [3] [s⁻¹]	kon [3] [M⁻¹ s⁻¹]	Kd [4] [nM]	koff [4] [s⁻¹]	kon [4] [M⁻¹ s⁻¹]	Kd [5] [nM]	koff [5] [s⁻¹]	kon [5] [M⁻¹ s⁻¹]	Kd [7] [nM]	koff [7] [s⁻¹]	kon [7] [M⁻¹ s⁻¹]	other results
A26Fab-645dsFv (bispecific antibody, Expressed in HEK293; tested as supernatant; also called Fab-dsFv; A26Fab-645dsFv (start)) heavy: EVQLVESGGGLVQPGGSLRLSCAASGFTFTNYGIHWIRQAPGKGLEWVASISPSGGLTYYRDSVKGRFTISRDDAKNSPYLQMNSLRAEDTAVYYCATGGEGIFDYWGQGTLVTVSSASTKGPSVFPLAPSSKSTSGGTAALGCLVKDYFPEPVTVSWNSGALTSGVHTFPAVLQSSGLYSLSSVVTVPSSSLGTQTYICNVNHKPSNTKVDKKVEPKSCSGGGGSGGGGTGGGGSEVQLLESGGGLVQPGGSLRLSCAVSGIDLSNYAINWVRQAPGKCLEWIGIIWASGTTFYATWAKGRFTISRDNSKNTVYLQMNSLRAEDTAVYYCARTVPGYSTAPYFDLWGQGTLVTVSS light: DIQMTQSPSSLSASVGDRVTITCRATQSIYNALAWYQQKPGKAPKLLIYNANTLHTGVPSRFSASGSGTDSTLTISSLQPEDFATYYCQQYYDYPLTFGGGTKVEIKRTVAAPSVFIFPPSDEQLKSGTASVVCLLNNFYPREAKVQWKVDNALQSGNSQESVTEQDSKDSTYSLSSTLTLSKADYEKHKVYACEVTHQGLSSPVTKSFNRGECSGGGGSGGGGSGGGGSDIQMTQSPSSVSASVGDRVTITCQSSPSVWSNFLSWYQQKPGKAPKLLIYEASKLTSGVPSRFSGSGSGTDFTLTISSLQPEDFATYYCGGGYSSISDTTFGCGTKVEIKRT	–	–	–	–	–	–	–	–	–	–	–	–	Kd [1]: 3.11 nM; koff [1]: 0.000212 s⁻¹; kon [1]: 68200 M⁻¹ s⁻¹; Kd [2]: 2.01 nM; koff [2]: 0.000151 s⁻¹; kon [2]: 75100 M⁻¹ s⁻¹
Single linker A26Fab-645dsFv (HC-vH linked) (bispecific antibody, Three polypeptides; the free 645dsvL is held to the linked 645dsvH by the disulphide G44C (vH) / G100C (vL); all are the same molecule; also called single linker Fab-dsFv (HC-vH)) heavy: EVQLVESGGGLVQPGGSLRLSCAASGFTFTNYGIHWIRQAPGKGLEWVASISPSGGLTYYRDSVKGRFTISRDDAKNSPYLQMNSLRAEDTAVYYCATGGEGIFDYWGQGTLVTVSSASTKGPSVFPLAPSSKSTSGGTAALGCLVKDYFPEPVTVSWNSGALTSGVHTFPAVLQSSGLYSLSSVVTVPSSSLGTQTYICNVNHKPSNTKVDKKVEPKSCSGGGGSGGGGTGGGGSEVQLLESGGGLVQPGGSLRLSCAVSGIDLSNYAINWVRQAPGKCLEWIGIIWASGTTFYATWAKGRFTISRDNSKNTVYLQMNSLRAEDTAVYYCARTVPGYSTAPYFDLWGQGTLVTVSS light: DIQMTQSPSSLSASVGDRVTITCRATQSIYNALAWYQQKPGKAPKLLIYNANTLHTGVPSRFSASGSGTDSTLTISSLQPEDFATYYCQQYYDYPLTFGGGTKVEIKRTVAAPSVFIFPPSDEQLKSGTASVVCLLNNFYPREAKVQWKVDNALQSGNSQESVTEQDSKDSTYSLSSTLTLSKADYEKHKVYACEVTHQGLSSPVTKSFNRGEC VL: DIQMTQSPSSVSASVGDRVTITCQSSPSVWSNFLSWYQQKPGKAPKLLIYEASKLTSGVPSRFSGSGSGTDFTLTISSLQPEDFATYYCGGGYSSISDTTFGCGTKVEIKRT	1	0.000209	209000	1.05	0.000207	197000	1.11	0.000234	211000	–	–	–	–
Single linker A26Fab-645dsFv (LC-vL linked) (bispecific antibody, Three polypeptides; the free 645dsvH is held to the linked 645dsvL by the disulphide G44C (vH) / G100C (vL); all are the same molecule; also called single linker Fab-dsFv (LC-vL)) heavy: EVQLVESGGGLVQPGGSLRLSCAASGFTFTNYGIHWIRQAPGKGLEWVASISPSGGLTYYRDSVKGRFTISRDDAKNSPYLQMNSLRAEDTAVYYCATGGEGIFDYWGQGTLVTVSSASTKGPSVFPLAPSSKSTSGGTAALGCLVKDYFPEPVTVSWNSGALTSGVHTFPAVLQSSGLYSLSSVVTVPSSSLGTQTYICNVNHKPSNTKVDKKVEPKSC light: DIQMTQSPSSLSASVGDRVTITCRATQSIYNALAWYQQKPGKAPKLLIYNANTLHTGVPSRFSASGSGTDSTLTISSLQPEDFATYYCQQYYDYPLTFGGGTKVEIKRTVAAPSVFIFPPSDEQLKSGTASVVCLLNNFYPREAKVQWKVDNALQSGNSQESVTEQDSKDSTYSLSSTLTLSKADYEKHKVYACEVTHQGLSSPVTKSFNRGECSGGGGSGGGGSGGGGSDIQMTQSPSSVSASVGDRVTITCQSSPSVWSNFLSWYQQKPGKAPKLLIYEASKLTSGVPSRFSGSGSGTDFTLTISSLQPEDFATYYCGGGYSSISDTTFGCGTKVEIKRT VH: EVQLLESGGGLVQPGGSLRLSCAVSGIDLSNYAINWVRQAPGKCLEWIGIIWASGTTFYATWAKGRFTISRDNSKNTVYLQMNSLRAEDTAVYYCARTVPGYSTAPYFDLWGQGTLVTVSS	3.17	0.000235	74000	1.49	0.000188	126000	2.31	0.000262	113000	–	–	–	Kd [6]: 2.46 nM; koff [6]: 0.000223 s⁻¹; kon [6]: 91000 M⁻¹ s⁻¹
A26Fab-645dsscFv (LC-scFv) (bispecific antibody, To be checked by chain lengths; also called Fab-dsscFv (LC-scFv)) heavy: EVQLVESGGGLVQPGGSLRLSCAASGFTFTNYGIHWIRQAPGKGLEWVASISPSGGLTYYRDSVKGRFTISRDDAKNSPYLQMNSLRAEDTAVYYCATGGEGIFDYWGQGTLVTVSSASTKGPSVFPLAPSSKSTSGGTAALGCLVKDYFPEPVTVSWNSGALTSGVHTFPAVLQSSGLYSLSSVVTVPSSSLGTQTYICNVNHKPSNTKVDKKVEPKSC light: DIQMTQSPSSLSASVGDRVTITCRATQSIYNALAWYQQKPGKAPKLLIYNANTLHTGVPSRFSASGSGTDSTLTISSLQPEDFATYYCQQYYDYPLTFGGGTKVEIKRTVAAPSVFIFPPSDEQLKSGTASVVCLLNNFYPREAKVQWKVDNALQSGNSQESVTEQDSKDSTYSLSSTLTLSKADYEKHKVYACEVTHQGLSSPVTKSFNRGECSGGGGSGGGGSEVQLLESGGGLVQPGGSLRLSCAVSGIDLSNYAINWVRQAPGKCLEWIGIIWASGTTFYATWAKGRFTISRDNSKNTVYLQMNSLRAEDTAVYYCARTVPGYSTAPYFDLWGQGTLVTVSSGGGGSGGGGSGGGGSGGGGSDIQMTQSPSSVSASVGDRVTITCQSSPSVWSNFLSWYQQKPGKAPKLLIYEASKLTSGVPSRFSGSGSGTDFTLTISSLQPEDFATYYCGGGYSSISDTTFGCGTKVEIKRT	–	–	–	–	–	–	–	–	–	1.29	0.000222	172000	–
A26Fab-645dsscFv (HC-scFv) (bispecific antibody, To be checked by chain lengths; also called Fab-dsscFv (HC-scFv)) heavy: EVQLVESGGGLVQPGGSLRLSCAASGFTFTNYGIHWIRQAPGKGLEWVASISPSGGLTYYRDSVKGRFTISRDDAKNSPYLQMNSLRAEDTAVYYCATGGEGIFDYWGQGTLVTVSSASTKGPSVFPLAPSSKSTSGGTAALGCLVKDYFPEPVTVSWNSGALTSGVHTFPAVLQSSGLYSLSSVVTVPSSSLGTQTYICNVNHKPSNTKVDKKVEPKSCSGGGGTGGGGSEVQLLESGGGLVQPGGSLRLSCAVSGIDLSNYAINWVRQAPGKCLEWIGIIWASGTTFYATWAKGRFTISRDNSKNTVYLQMNSLRAEDTAVYYCARTVPGYSTAPYFDLWGQGTLVTVSSGGGGSGGGGSGGGGSGGGGSDIQMTQSPSSVSASVGDRVTITCQSSPSVWSNFLSWYQQKPGKAPKLLIYEASKLTSGVPSRFSGSGSGTDFTLTISSLQPEDFATYYCGGGYSSISDTTFGCGTKVEIKRT light: DIQMTQSPSSLSASVGDRVTITCRATQSIYNALAWYQQKPGKAPKLLIYNANTLHTGVPSRFSASGSGTDSTLTISSLQPEDFATYYCQQYYDYPLTFGGGTKVEIKRTVAAPSVFIFPPSDEQLKSGTASVVCLLNNFYPREAKVQWKVDNALQSGNSQESVTEQDSKDSTYSLSSTLTLSKADYEKHKVYACEVTHQGLSSPVTKSFNRGEC	–	–	–	–	–	–	–	–	–	1.31	0.00024	183000	–
